Reference: publication PMC5832849

Biological target: scFvD8 mutant (scFvD8-M), L96Tyr to Ser and H98Asp to Ser (mouse)
Test: ELISA; competitive: scFv at 0.5 nM pre-incubated with preS1 recombinant protein (1000 to 0.01 nM in PBST) at 37 °C for 1 h, then added to plates coated with 100 nM preS1, room temperature 30 min; detected with HRP-labelled anti-SUMO antibody; relative affinity

Chain of scFvD8 mutant (scFvD8-M), L96Tyr to Ser and H98Asp to Ser (mouse) (heavy, as listed by the source, chain 1 of 2): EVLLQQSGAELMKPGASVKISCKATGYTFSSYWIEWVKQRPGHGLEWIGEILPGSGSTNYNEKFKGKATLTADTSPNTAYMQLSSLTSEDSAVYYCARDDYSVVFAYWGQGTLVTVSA
Chain of scFvD8 mutant (scFvD8-M), L96Tyr to Ser and H98Asp to Ser (mouse) (light, as listed by the source, chain 2 of 2): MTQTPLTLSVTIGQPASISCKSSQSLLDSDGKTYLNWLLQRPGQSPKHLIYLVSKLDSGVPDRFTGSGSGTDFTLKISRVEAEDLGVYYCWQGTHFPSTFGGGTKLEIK

relative affinity (concentration at 50% protein binding saturation): 5 nM
Substance: HBV preS1 recombinant protein (domain or fragment)
